Test results: patent publication US20210230272A1 (L AND L BIOPHARMA, published 2021)

B1: LB309 (bispecific antibody)
chain 1: not shown
chain 2: QVQLVQSGAEVKKPGSSVKVSCKASGYAFSNYLIEWVKQAPGQGLEWIGLINPGSGGTNYNEKFKGKATITADKSTSTAYMELSSLRSEDTAVYYCARVYYGNSFAYWGQGTLVTVSS
chain 3: DIVMTQSPDSLAVSLGERATISCKSSQSLLNSGNQKNYLTWYQQKPGQPPKLLIYWASTRESGVPDRFSGSGSGTDFTLTISSLQAEDVAVYYCQNDYFYPFTFGQGTKLEIK
chain 4: not shown
B2: LB313 (bispecific antibody)
chain 1: not shown
chain 2: EIVLTQSPATLSLSPGERATLSCRASKGVSTSGYSYLHWYQQKPGQAPRLLIYLASYLESGVPARFSGSGSGTDFTLTISSLEPEDFAVYYCQHSRDLPLTFGGGTKVEIKRTVAAPSVFIFPPSDEQLKSGTASVVCLLNNFYPREAKVQWKVDNALQSGNSQESVTEQDSKDSTYSLSSTLTLSKADYEKHKVYACEVTHQGLSSPVTKSFNRGEC
chain 3: B1 chain 2
chain 4: B1 chain 3
B3: LB308 (bispecific antibody)
chain 1: not shown
chain 2: B1 chain 2
chain 3: B1 chain 3
chain 4: B2 chain 2
B4: LB312 (bispecific antibody)
chain 1: not shown
chain 2: B1 chain 3
chain 3: B1 chain 2
chain 4: B2 chain 2
B5: LB314 (bispecific antibody)
chain 1: B1 chain 3
chain 2: B1 chain 2
chain 3: not shown
chain 4: B1 chain 2
chain 5: B1 chain 3
chain 6: not shown

target: T1, human PD-1 (human, UniProt Q15116 25-170); assay: ELISA, PD-1 coated
T1 construct: extracellular domain; also called PD-1 antigen
T1 sequence (Q15116 25-170): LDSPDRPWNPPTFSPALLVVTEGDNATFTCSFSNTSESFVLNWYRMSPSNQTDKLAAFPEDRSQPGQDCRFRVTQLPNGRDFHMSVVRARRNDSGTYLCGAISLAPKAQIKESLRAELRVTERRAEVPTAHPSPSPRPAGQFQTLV

| EC50 | Binder |
| --- | --- |
| 0.16 nM | B1 |
| 0.048 nM | B2 |
| 0.25 nM | B3 |
| 0.042 nM | B4 |
| 0.083 nM | B5 |

target: T1, human PD-1; assay: ELISA; EC50 ratio to the control monoclonal antibody

| EC50 fold change | Binder |
| --- | --- |
| 1.33 | B1 |
| 3.4 | B2 |
| 0.93 | B3 |
| 3 | B4 |
| 5.2 | B5 |

target: T1, human PD-1; assay: blocking ELISA; IC50 ratio to the control monoclonal antibody

| IC50 fold change | Binder |
| --- | --- |
| 2.42 | B1 |
| 1.8 | B3 |

target: T1, human PD-1; assay: blocking ELISA: PD-1 coated, biotin-labelled PD-L1

| IC50 | Binder |
| --- | --- |
| 0.8 nM | B1 |
| 1.93 nM | B3 |
